In the assay the target is T1, 重组弓形虫毒力因子ROP18 (Toxoplasma gondii, UniProt Q2PAY2 1-554).
T1 construct: also called 弓形虫棒状体蛋白18; rhoptry protein 18; not shown: vector-derived tag of pET28a (fusion protein purified on Ni-NTA)
T1 sequence (looked up): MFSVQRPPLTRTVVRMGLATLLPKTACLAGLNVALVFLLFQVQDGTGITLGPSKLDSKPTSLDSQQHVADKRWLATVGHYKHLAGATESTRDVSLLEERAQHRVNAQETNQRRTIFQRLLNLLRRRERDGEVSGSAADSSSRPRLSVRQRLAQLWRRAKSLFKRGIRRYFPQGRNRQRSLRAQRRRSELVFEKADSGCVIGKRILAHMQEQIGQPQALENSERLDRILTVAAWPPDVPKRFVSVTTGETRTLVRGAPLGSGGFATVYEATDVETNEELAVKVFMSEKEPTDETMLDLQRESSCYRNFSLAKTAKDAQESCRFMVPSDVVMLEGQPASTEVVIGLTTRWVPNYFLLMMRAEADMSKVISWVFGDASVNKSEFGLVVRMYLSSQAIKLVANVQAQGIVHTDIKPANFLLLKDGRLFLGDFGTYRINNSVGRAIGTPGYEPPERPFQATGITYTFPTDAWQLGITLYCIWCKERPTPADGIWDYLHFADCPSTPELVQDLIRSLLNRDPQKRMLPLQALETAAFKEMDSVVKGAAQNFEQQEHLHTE
The assay can be described thus: SPR, Biacore T100, 1:1 binding fit. (In SPR one partner is held on a chip, and binding of the other changes the refractive index at the surface.)

In general, Kd refers to the constant that tells how readily two partners part at equilibrium.

B1: 弓形虫毒力因子ROP18纳米抗体22号克隆株 (VHH)
VHH: QVQLVESGGGSVQAGGSLRLSCVASRYTYTYSTYCLGWFRQAPGKEREEIAIIDSDGGARYADSVKGRFTISRDNAKSTLYLHMNSLKPDDTAMYSCAAGRPAPSLGYKCMYNSRHKGTLVTVSS
notes: also called 毒力因子纳米抗体; pMECS-ROP18-22; not shown: tag from the pMECS vector (purified on a nickel column, detected with anti-His a)
B1 returned an equilibrium dissociation constant (Kd) of 2.72 nM.

The values are drawn from patent CN114133451A (HANGZHOU MEDICAL COLLEGE, dated 2022).
